Source: patent US20090068174A1, “THERAPEUTIC ALKALINE PROTEASE COMPOSITIONS AND USE IN FACILITATING THE TRANSPORT OF AGENTS ACROSS THE GASTROINTESTINAL MUCOSAL LINING” (Kansas University Medical Center Research Institute, Inc., priority 2007, published 2009)
Entries after “also recorded” stand apart in the source; their conditions may differ.

B1: 26 kDa Protease: A. oryzae protease cloned recently by Novozyme, labeled the 26 kDa protease, SEQ ID NO: 3 (protein, listed as Aspergillus oryzae)
chain: HASADAWASSKAISSTSSPSSFKMRFISVSSLLLALAPALNAVPVEVAGSAQGLDVTLSQVGNTRIKAWKNTGSEDVTFVHLNFFKDAAPVQKVSLFRNATEVQFQGIKQRLITEGLSDDALTTLAPGATIEDEFDIASTSDLSEGGTITINSNGLVPITTDNKVTGYIPFTSNELSIDVDAAEAASVTQAVKILERRTKVTSCSGSRLSALQTALRNTVSLARAAATAAQSGSSSRFQEYFKTTSSSTRSTVAARLNAVANEAASTSSGSTTYYCSDVYGYCSSNVLAYTLPSYNIIANCDLYYSYLPALTSTCHAQDQATTTLHEFTHAPGVYSPGTDDLGYGYSAATALSASQALLNADTYALFANAVNLNC
B2: Alkaline Protease: Aspergillus oryzae alkaline protease (oryzin), SEQ ID NO: 2, purified from the protease powder of Example 1 (protein, listed as Aspergillus oryzae)
chain: MQSIKRTLLLLGAILPAVLGAPVQETRRAAEKLPGKYIVTFKPGIDEAKIQEHTTWATNIHQRSLERRGATGGDLPVGIERNYKINKFAAYAGSFDDATIEEIRKNEDVAYVEEDQIYYLDGLTTQKSAPWGLGSISHKGQQSTDYIYDTSAGEGTYAYVVDSGVNVDHEEFEGRASKAYNAAGGQHVDSIGHGTHVSGTIAGKTYGIAKKASILSVKVFQGESSSTSVILDGFNWAANDIVSKKRTSKAAINMSLGGGYSKAFNDAVENAFEQGVLSVVAAGNENSDAGQTSPASAPDAITVAAIQKSNNRASFSNFGKVVDVFAPGQDILSAWIGSSSATNTISGTSMATPHIVGLSLYLAALENLDGPAAVTKRIKELATKDWKDVKGSPNLLAYNGNA

Experiments:
[1] = Biochemical properties of the purified proteases (Table 4): pH optimum, substrate specificity, metal requirements; settings: established by inventors
[2] = Hydrolysis of D-val-leu-lys-pNA (kinetic absorbance assay); assay type: biochemical; settings: 20 mM Tris-HCl buffer, pH 7, absorbance at 405 nm
Protocol: Specific activity of the purified enzymes was determined by measuring hydrolysis of protamine sulfate and D-val-leu-lys-pNA. For the former, enzyme-substrate mixtures were prepared in 20 mM Tris-HCl, pH 7 or 8, and incubated for 30 min at 37° C. […] Hydrolysis of D-val-leu-lys-pNA in 20 mM Tris-HCl buffer, pH 7, was determined by measuring absorbance at 405 nm wavelength every 10 sec over 10 min and calculating the change in absorbance (mOD units) per min per μg protein.

[3] = biological target: human TNF-α (Homo sapiens, UniProt P01375); assay: Bioactivity of protease-treated human TNF-α in the C2C12 cell assay (nitrite); assay type: cell-based; set-up: key to Inactivation of Human TNF-α: +: Indicates that the protease inactivated the cytokine; ^a: Cleavage of the cytokine occurred without inactivation; settings: for Effect on bioactivity of human TNF-α: C2C12 cells costimulated with mouse IFN-γ, nitrite
Sequence of human TNF-α (P01375 77-233 limits assumed): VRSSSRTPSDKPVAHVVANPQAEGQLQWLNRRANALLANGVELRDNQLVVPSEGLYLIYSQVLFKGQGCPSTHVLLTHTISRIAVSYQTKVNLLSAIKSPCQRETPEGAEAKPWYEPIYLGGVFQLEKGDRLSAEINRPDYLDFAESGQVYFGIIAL
Protocol: Effects of purified A. oryzae proteases on the bioactivity of human TNF-α (A) protease powder prepared according to Example 1 (preparation); (B) alkaline protease; (C) 26 kDa protease; and (D) deuterolysin. 50 ng quantities of TNF-α were incubated at 37° C. for 24 hours with the indicated quantities (∘=buffer alone; […]=5 ng; ▪=10 ng) of: protease powder prepared according to Example 1 (preparation); alkaline protease; 26 kDa protease; and deuterolysin. The reactions were then stopped by addition of FBS and samples were added to C2C12 cells that had been costimulated with mouse IFN-γ. Twenty-four hours later, nitrite was measured in culture fluids.
Protease-treated human TNF-α was then tested for its bioactivity in the C2C12 cell assay. […] (FIG. 12A-D)
The protease powder prepared according to Example 1 inactivates mouse recombinant TNF-α by limited proteolysis. (FIG. 16 A-B) This property was established by measuring the loss of activity of TNF-α in a bioassay in which the cytokine was used to coactivate mouse myoblast C2C12 cells for the production of NO by transcriptional activation of the inducible NO synthase (iNOS) gene. The assay can be used to measure either TNF-α or IFN-γ activity by adding test samples containing one of the cytokines to cells stimulated with an excess of the other cytokine. Nitrite is a stable endproduct of NO produced by the cells. […] (FIG. 16A-B).

[4] = test system: Salmon protamine; assay: Hydrolysis of salmon protamine sulfate (ninhydrin assay); assay type: biochemical; settings: 20 mM Tris-HCl, pH 7 or 8, 30 min at 37° C.
Protocol: Specific activity of the purified enzymes was determined by measuring hydrolysis of protamine sulfate and D-val-leu-lys-pNA. For the former, enzyme-substrate mixtures were prepared in 20 mM Tris-HCl, pH 7 or 8, and incubated for 30 min at 37° C. After precipitation with 14% trichloroacetic acid and removal of precipitated protein by centrifugation, the reaction mixtures were diluted in 500 mM sodium citrate buffer, pH 5, combined with 2% ninhydrin and boiled for 30 min. After dilution in 50% isopropanol, absorbance was measured at 570 nm wavelength, and results were referenced to leucine as a standard. Hydrolysis of D-val-leu-lys-pNA in 20 mM Tris-HCl buffer, pH 7, was determined by measuring absorbance at 405 nm wavelength every 10 sec over 10 min and calculating the change in absorbance (mOD units) per min per μg protein.
Protamine sulfate from salmon (Sigma, St. Louis, Mo.): 1% (10 mg/ml) solution in reaction buffer. Fushima et al use 2% and denature the protein by boiling for 30 min in 100 mM phosphate buffer, pH 7.0. […]
Procedure • 1. […] Read Absorbance at 570 nm (purple color) and calculate nanomoles by reference to a standard curve prepared with leucine. […] Activity of enzyme is expressed as nanomoles of leucine equivalents released per milligram of protein (endpoint assay) or nanomoles of leucine equivalents/min/μg protein (kinetic assay). • 10. […]

Row | Molecule | Substrate specificity [1] | Specific activity, Val-leu-lys-pNA [2] [mOD/min/μg protein] | Effect on bioactivity of human TNF-α [3] | Specific activity, Salmon protamine [4] | Inactivation of Human TNF-α ([3]; Table 7 summary)
1 | B1 | protamine | 2.1 | did not significantly alter the biological activity of the cytokine | 679 nmoles Leucine/30 min./μg protein | 
2 | B2 | Protamine > casein,; also recorded: hemoglobin; val-leu-lys | 116.7 | selectively inactivated human TNF-α | 951 nmoles Leucine/30 min./μg protein | +
